Measurements taken from PMC6980540.

Tests used:
[1] = molecular target: Spa47 (Shigella T3SS ATPase), wild-type (S. flexneri) (UniProt P0A1C1)
[2] = molecular target: Spa47 (Shigella T3SS ATPase), wild-type (S. flexneri) (UniProt P0A1C1); remark: listed apart in the source

Substance: Spa47 (Shigella T3SS ATPase), wild-type (from UniProt P0A1C1 1-430) (enzyme)
- ATP hydrolysis rate (normalized for enzyme concentration) of monomeric Spa47 as a function of enzyme concentration [1]: 3 fold
- ATPase activity of the Spa47 oligomer formed in vitro by concentrating the monomer to ~200 μM ((μmol ADP/min) /mg Spa47) [2]: 1.5
- ATPase activity of the isolated monomeric Spa47 before its conversion to oligomer ((μmol ADP/min) /mg Spa47) [2]: 0.11
